Measured values reported in US20250171558A1.

How the values were obtained:
[1] = target: FcγRIIb; test: SPR; mouse FcγR
[2] = target: FcγRIV; test: SPR; mouse FcγR
[3] = target: FcγRI; test: SPR; mouse FcγR
[4] = target: FcγRIII; test: SPR; mouse FcγR
[5] = target: FcγRIIIa F; test: SPR; human FcγRIIIa F157
[6] = target: FcγRIIb; test: SPR; rhesus FcγR
[7] = target: FcγRI; test: SPR; rhesus FcγR
[8] = target: FcγRIIa; test: SPR; rhesus FcγR
[9] = target: FcγRIII; test: SPR; rhesus FcγR
[10] = target: FcγRIIa R; test: SPR; human FcγRIIa R131
[11] = target: FcγRIIIa V; test: SPR; human FcγRIIIa V157
[12] = target: FcγRIIa H; test: SPR; human FcγRIIa H131
[13] = target: human FcRn/B2 microglobulin; test: SPR; pH 6.0

Kd [1] [nM] | Kd [2] [nM] | Kd [3] [nM] | Kd [4] [nM] | Kd [5] [nM] | Kd [6] [nM] | Kd [7] [nM] | Kd [8] [nM] | Kd [9] [nM] | Kd [10] [nM] | Kd [11] [nM] | Kd [12] [nM] | Kd [13] [nM] | Substance
1620 | 207 | 440 | 2380 | 164 | 6920 | 0.457 | 9100 | 91.2 | 819 | 131 | 622 |  | GAALIE
 |  |  |  |  |  |  |  |  |  |  |  | 1.4 | GAALIE LS+
 |  |  |  |  |  |  |  |  |  |  |  | 19.9 | GAALIE LS-
1150 | 258 | 212 | 2520 | 162 | 1100 | 0.51 | 1400 | 87.6 | 204 | 130 | 249 |  | GAIE
 |  |  |  |  |  |  |  |  |  |  |  | 1.99 | GAIE LS+
 |  |  |  |  |  |  |  |  |  |  |  | 20.1 | GAIE LS-
398 | 8.56 | 14.1 | 1080 | 47.5 | 540 | 0.441 | 685 | 30 | 354 | 29.6 | 769 |  | SDIE
 |  |  |  |  |  |  |  |  |  |  |  | 1.19 | SDIE LS+
 |  |  |  |  |  |  |  |  |  |  |  | 12.7 | SDIE LS-
